± gives the uncertainty stated by the source.
Test: protein stability index of a GFP-peptide fusion (yeast GPS) (PSI 1-4); higher = more stable; sorted into four equal gates, so the index is relative within each strain
Method in brief: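 Sequencing reads from sorted gates were used to score each peptide. The library consisted of tiled 17-residue yeast protein peptides fused downstream of GFP on a Cherry-expressing plasmid, pooled and carried in yeast. Mid-log cultures in leucine-free medium were split into four equal gates by GFP/Cherry ratio, and each gate's plasmids were PCR-amplified and Illumina-sequenced. The protein stability index adds up, over all gates, the read frequency multiplied by the gate number.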

| Sequence | protein stability index (doa10∆) | protein stability index (pdr5∆) | protein stability index (san1∆) | protein stability index (ubr1∆) |
| --- | --- | --- | --- | --- |
| VAPFMIKYEFNGIPLKS [YMR129W/POM152] | 2.54 ± 0.077 | 1.91 ± 0.045 | 2.38 ± 0.083 | 2.75 ± 0.073 |
| HGTSTSAEDEENIIQRL [CDC53] | 3.13 ± 0.064 | 3.34 ± 0.059 | 3.13 ± 0.044 | 3.06 ± 0.057 |
| KAINQELEDVAVKKLYA [YCS4] | 3.26 ± 0.17 | 3.23 ± 0.13 | 2.72 ± 0.07 | 2.94 ± 0.08 |
| TYGFLTPNLWAEQPLPV [RPS2] | 1.21 ± 0.056 | 1.38 ± 0.081 | 1.37 ± 0.11 | 1.54 ± 0.059 |
| FHNAVFNSFRRFKSQFL [QCR8] | 2.31 ± 0.068 | 1.52 ± 0.046 | 1.6 ± 0.088 | 1.54 ± 0.046 |
| VVAAAEDDDNEQHEEKA [QCR6] | 2.87 ± 0.12 | 2.98 ± 0.15 | – | 3.07 ± 0.16 |
| LSYISALGMMTRISSQF [RET1] | 1.41 ± 0.063 | 1.34 ± 0.057 | 1.43 ± 0.16 | 1.14 ± 0.054 |
| VGASVVVVKNWGAETDE [RPS12] | 3.34 ± 0.12 | 3.12 ± 0.089 | 3.29 ± 0.047 | 2.97 ± 0.067 |
| PLGVILTFVSVDEELGP [SCL1] | 1.72 ± 0.039 | 1.9 ± 0.037 | 2.67 ± 0.052 | 2.46 ± 0.04 |
| TTKERKKSRLGNSFHLM [PRP8] | 2.7 ± 0.066 | 2.83 ± 0.065 | 2.57 ± 0.062 | 2.48 ± 0.054 |
| SSPEEPFMSYSPQLTAI [SNF12] | 2.45 ± 0.065 | 2.79 ± 0.063 | 2.7 ± 0.066 | 2.77 ± 0.051 |
| VVYHPSNNELVRTNTLT [RPS8A] | 2.647 ± 0.019 | 2.396 ± 0.018 | 2.455 ± 0.019 | 2.647 ± 0.014 |
| EQTTGGNNKDLKNTMQY [RPB4] | 3.24 ± 0.11 | 3.09 ± 0.082 | 2.65 ± 0.17 | 3.18 ± 0.19 |
| MATNRADTLDPALLRPG [RPT3] | – | 3.31 ± 0.18 | – | 2.79 ± 0.28 |
| VQPTIGQLPQLPKLNLP [SNF5] | 3.05 ± 0.044 | 2.75 ± 0.046 | 2.49 ± 0.057 | 3.08 ± 0.043 |
| SNPSGNYTGWKAISVGA [PRE9] | 1.89 ± 0.073 | 2.5 ± 0.061 | 2.54 ± 0.086 | 2.22 ± 0.048 |
| EKYEDEDEEKILDNTEN [DSN1] | 3.52 ± 0.15 | 3.16 ± 0.1 | 3.01 ± 0.26 | 3.21 ± 0.091 |
| RQFSNEEVNRCYLRWQH [SNF2] | 2.83 ± 0.081 | 2.78 ± 0.08 | 2.95 ± 0.086 | 3.01 ± 0.071 |
| VSKKELYAIKKVTLNKE [BRR2] | 1.73 ± 0.072 | 2.01 ± 0.11 | – | 1.6 ± 0.085 |
| SVQNLDQLLTDLIETSF [NUT1] | 2.9 ± 0.15 | 2.64 ± 0.1 | 2.94 ± 0.066 | 2.85 ± 0.11 |
| AKEELNGLKDQLNEERS [YIL149C/MLP2] | 3.3 ± 0.14 | 3.42 ± 0.17 | 3.19 ± 0.075 | 3.41 ± 0.15 |
| SPIPFPPLTYKNDTKIL [PRP8] | 2.91 ± 0.057 | 2.56 ± 0.045 | 2.73 ± 0.059 | 2.24 ± 0.029 |
| AFHNNLKFLYLLDAYSH [MED1] | 1.16 ± 0.07 | 1.25 ± 0.049 | 1.16 ± 0.1 | 1.26 ± 0.042 |
| SFPILDQCVGQVGLNFE [YMR129W/POM152] | 3.07 ± 0.083 | 2.96 ± 0.11 | 3.1 ± 0.056 | 3.02 ± 0.07 |
| AGIPIGLKRSQLDEFKN [SWP82] | 2.56 ± 0.084 | 2.22 ± 0.075 | 2.21 ± 0.098 | 1.38 ± 0.055 |

| Sequence | protein stability index (doa10∆) | protein stability index (pdr5∆) | protein stability index (san1∆) | protein stability index (ubr1∆) |
| --- | --- | --- | --- | --- |
| LNKDSTNEFVGSPSLTS [NUT1] | 2.96 ± 0.062 | 3.18 ± 0.057 | 2.93 ± 0.044 | 2.9 ± 0.042 |
| ELRFPSPTPIQRITIPN [PRP28] | 2.02 ± 0.093 | 2.19 ± 0.071 | 1.85 ± 0.081 | 2.06 ± 0.058 |
| LKWVAVVPDLGHLNGHT [SSN2] | 3.12 ± 0.07 | 3.13 ± 0.058 | 3.1 ± 0.048 | 3.16 ± 0.054 |
| AERTMSKKETKLQENRT [SMC2] | 2.84 ± 0.25 | 3.17 ± 0.19 | 3.31 ± 0.15 | 3.04 ± 0.13 |
| LNKSDLLDKYGKTGLSN [YML103C/NUP188] | 3.38 ± 0.12 | 3.17 ± 0.13 | 3.44 ± 0.058 | 3.38 ± 0.075 |
| PGTIVLYAERVQDRGLS [RPS3] | 2.87 ± 0.06 | 2.99 ± 0.056 | 2.62 ± 0.085 | 3.17 ± 0.041 |
| RFWSFMKTQRFVSNMGF [SIR4] | 1.55 ± 0.21 | 1.4 ± 0.11 | 1.82 ± 0.13 | 1.68 ± 0.048 |
| VPTLEAKRDYIISRLNA [FAS1] | 3.13 ± 0.087 | 3.35 ± 0.16 | 3.05 ± 0.076 | 3.25 ± 0.071 |
| KRAASVARHIYMRKQVG [RPS19A] | 1.7 ± 0.2 | – | 1.88 ± 0.28 | – |
| NNNSSNEKEQLSFINPK [SEC65] | 2.83 ± 0.045 | 3.11 ± 0.052 | 2.8 ± 0.034 | 2.92 ± 0.036 |
| GEITKTENEKFISYHDK [NUT1] | 3.31 ± 0.097 | 3.35 ± 0.077 | 3.39 ± 0.057 | 3.17 ± 0.079 |
| TAELIKELKEKEAAESP [PUP2] | 2.79 ± 0.058 | 3.3 ± 0.094 | 3.21 ± 0.12 | 3.22 ± 0.074 |
| EKVTRYNRHKLQELIVN [RPO31] | 1.74 ± 0.046 | 1.44 ± 0.043 | 1.82 ± 0.058 | 1.44 ± 0.041 |
| TKNDAGSKQILKTEAAN [BRR2] | 2.85 ± 0.055 | 2.95 ± 0.054 | 2.93 ± 0.039 | 3.04 ± 0.055 |
| KIGEEDYGEEIKSGVAK [MTW1] | – | 2.93 ± 0.14 | – | 3.31 ± 0.12 |
| RLISQSLLASKSTYRTP [RIP1] | 2.79 ± 0.12 | 3.04 ± 0.21 | 2.82 ± 0.22 | 2.45 ± 0.14 |
| DVIATEPQGAVTHMDQI [SMD3] | 3.03 ± 0.073 | 2.83 ± 0.084 | 2.28 ± 0.11 | 2.47 ± 0.088 |
| KSNSTGNISSSTVKKKD [REC8] | 2.96 ± 0.058 | 2.96 ± 0.058 | 2.83 ± 0.039 | 3.02 ± 0.049 |
| CLEDPEKPFNENRFQDT [POP4] | 2.68 ± 0.15 | 3.02 ± 0.16 | 2.64 ± 0.24 | 3.03 ± 0.099 |
| IEIKISDPLTVFSESCS [SNU114] | 2.33 ± 0.071 | 2.55 ± 0.073 | 2.42 ± 0.052 | 2.45 ± 0.06 |
| LKSASKETAPVIDTLAA [RPL28] | 2.07 ± 0.072 | 2.41 ± 0.11 | 2.68 ± 0.073 | 2.12 ± 0.087 |
| LLRNLESKMRQQEAKYR [YDL088C/ASM4] | 1.22 ± 0.058 | 1.61 ± 0.072 | 1.39 ± 0.14 | 1.36 ± 0.059 |
| ILLSHHRASPADVSIKS [POP5] | 2.79 ± 0.24 | 3.4 ± 0.18 | 3.24 ± 0.062 | – |
| CTLTADGAYALSASWDK [ASC1] | 3.08 ± 0.051 | 3.25 ± 0.051 | 3.19 ± 0.075 | 3.19 ± 0.038 |
| PNIVEIDLDNDEDDDED [DLS1] | 3.17 ± 0.084 | 3.29 ± 0.065 | 2.89 ± 0.1 | 3.04 ± 0.15 |
